Measurements reported in patent US20230331827A1, “POTASSIUM CHANNEL INHIBITORS” (priority 2017, published 2023).
Read-outs that look alike come from different tables or passages of the source.

Tests used:
human Kv1.3 (huKv1.3) = target: T1, human Kv1.3 (huKv1.3) (Homo sapiens, UniProt P22001); test: QPatch automated patch-clamp, CHO cells stably expressing human Kv1.3 (Examples 19-21); assay type: cell-based
T1 construct: host or cells: CHO
How it was run: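 Whole-cell currents were recorded in extracellular solution of 145 mM NaCl, 4 mM KCl, 2 mM CaCl2, 1 mM MgCl2, 10 mM HEPES, 10 mM glucose (pH 7.4), with a KF/KCl/EGTA pipette solution (pH 7.2). From -80 mV, +30 mV pulses of 300 ms were applied every 10 s, with four ascending KnotBody concentrations added extracellularly. Peak outward current was averaged (n = 3-6) and IC50 fitted from concentration-response curves.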

human Kv1.1 (huKv1.1) = target: T2, human Kv1.1 (huKv1.1) (Homo sapiens, UniProt Q09470); test: QPatch automated patch-clamp, CHO-S cells expressing huKv1.1 (Examples 20-21); assay type: cell-based; conditions: four-point curves of FIG. 33, Table E20
T2 construct: expressed in transfected cells; host or cells: Freestyle CHO-S
Protocol: 1. The effect of these KnotBodies on cells expressing human Kv1.1 (huKv1.1) and Kv1.3 (huKv1.3) channels was assessed using QPatch automated patch-clamp platform (Sophion).
To generate huKv1.1 expressing cells, Freestyle CHO-S cells (Cat. no. R80007, Life Technologies, California, USA) were transfected with pINT50-Tr plasmid encoding huKv1.1 gene using the MaxCyte STX (MaxCyte) transfection system. In pINT50-Tr plasmid, huKv1.1 gene is under the control of a CMV promoter. 64 µg of the plasmid DNA were added to 400 µl of Freestyle CHO-S cells (at a density of 1 × 10^8 cells/ml) in Electroporation Buffer (GE Healthcare Life Sciences, Cat. no. EPB1) in an OC-400 processing assembly (MaxCyte). Following electroporation, the cells were transferred to a well of a 24-well plate containing 200 U/ml DNAse I (Sigma, D4263) and incubated for 20 minutes at 37° C. and 5% CO2. The cells were then transferred into a 100 ml shaker flask containing 20 ml of CD Opticho Media (Thermo Fisher Scientific, Cat.No 12681-011,) supplemented with 8 mM L-Glut (Thermo Fisher Scientific, cat. no. 25030-024). The cells were incubated for 24 hours at 37° C. and 5% CO2 (and 75% humidity and shaking at 800 rpm) prior to testing using automated patch clamp electrophysiology.
For the testing of Kv1.1 and Kv1.3, CHO-S expressing huKv1.1 (described above) or CHO cells stably expressing huKv1.3 (Charles River Lab) were analysed using the QPatch electrophysiology assay in the presence or absence of the KnotBody fusions. Internal and external physiological solutions were freshly prepared prior to the assay. The extracellular solution contained 145 mM NaCl, 4 mM KC1, 2 mM CaC12, 1 mM MgC12, 10 mM HEPES and 10 mM glucose; the pH was adjusted to 7.4 with NaOH; the osmolarity was ~ 305 mOsm/L. The intracellular solution contained: KF (120 mM), KC1 (20 mM), HEPES (10 mM) EGTA (10 mM); the pH was adjusted to 7.2 with KOH; osmolarity was ~ 300 mOsm/L.
A series of depolarising voltage (channel activating) pulses were used to monitor the channel currents upon adding control (extracellular solution) to define a control baseline of current activity. To these measured control currents four, ascending concentrations of KnotBodies (including previously described KB_A12_ShK and KB_A12_KTX described in Example 8) or parental antibody isotypes (control molecules) were applied to the external bathing solution. KnotBodies KB_A12 and KB_A07 (EETI-II fusions) were used as isotype controls for the testing. From a holding voltage of -80 mV a depolarising, activating voltage pulses of […] were applied for 300 ms, every 10 seconds. The elicited, maximum outward current values measured during the activating step for each solution exchange period, averaged (n = 3 - 6 for each concentration applied) and plotted as concentration-response curves (see FIG. 33). From these concentration-response curves IC50 values were calculated (see Table E20).
For the testing of Kv1.1 and Kv1.3, CHO-S expressing huKv1.1 (see Example 20 and below) or CHO cells stably expressing huKv1.3 (Charles River Lab) were analysed using the QPatch electrophysiology assay in the presence or absence of the KnotBody fusions - see details in Examples 19 and 20.
In addition to the CHO-S transiently expressing huKv1.1 (described in Example 20), CHO-S cells with poly-clonal stable expression of huKv1.1 cells were also made and used in the QPatch electrophysiology assay. To generate the polyclonal stable huKv1.1 cells from the transiently expressing cells described in Example 20, after a 24 hour incubation period the selection antibiotic Puromycin (catalogue no. A1 1138-03, Life Technologies, California, USA) was added to culture media. Then, for the first 14 days puromycin was at 10 µg ml-1 media; at days 15-28 puromycin was at 20 µg ml-1 media. Cell cultures were seeded at 2.5 x 10^5 cells ml^-1 into fresh culture media and puromycin twice per week through this selection growth period. […]

T1 sequence (P22001 whole entry): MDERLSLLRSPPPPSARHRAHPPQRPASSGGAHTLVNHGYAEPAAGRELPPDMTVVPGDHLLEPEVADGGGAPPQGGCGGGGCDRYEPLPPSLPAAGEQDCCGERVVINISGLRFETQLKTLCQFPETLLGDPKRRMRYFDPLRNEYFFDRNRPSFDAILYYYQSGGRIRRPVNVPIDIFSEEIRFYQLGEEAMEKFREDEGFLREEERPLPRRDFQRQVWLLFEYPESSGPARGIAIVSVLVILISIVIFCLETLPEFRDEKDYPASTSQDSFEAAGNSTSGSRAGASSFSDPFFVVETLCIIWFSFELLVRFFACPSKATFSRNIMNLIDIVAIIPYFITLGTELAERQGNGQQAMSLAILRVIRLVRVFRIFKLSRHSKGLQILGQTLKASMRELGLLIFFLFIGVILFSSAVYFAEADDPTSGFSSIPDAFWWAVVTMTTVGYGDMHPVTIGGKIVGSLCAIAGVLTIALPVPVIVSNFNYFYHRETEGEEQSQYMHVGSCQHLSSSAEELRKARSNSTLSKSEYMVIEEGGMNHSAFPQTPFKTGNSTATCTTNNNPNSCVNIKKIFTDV
T2 sequence (Q09470 whole entry): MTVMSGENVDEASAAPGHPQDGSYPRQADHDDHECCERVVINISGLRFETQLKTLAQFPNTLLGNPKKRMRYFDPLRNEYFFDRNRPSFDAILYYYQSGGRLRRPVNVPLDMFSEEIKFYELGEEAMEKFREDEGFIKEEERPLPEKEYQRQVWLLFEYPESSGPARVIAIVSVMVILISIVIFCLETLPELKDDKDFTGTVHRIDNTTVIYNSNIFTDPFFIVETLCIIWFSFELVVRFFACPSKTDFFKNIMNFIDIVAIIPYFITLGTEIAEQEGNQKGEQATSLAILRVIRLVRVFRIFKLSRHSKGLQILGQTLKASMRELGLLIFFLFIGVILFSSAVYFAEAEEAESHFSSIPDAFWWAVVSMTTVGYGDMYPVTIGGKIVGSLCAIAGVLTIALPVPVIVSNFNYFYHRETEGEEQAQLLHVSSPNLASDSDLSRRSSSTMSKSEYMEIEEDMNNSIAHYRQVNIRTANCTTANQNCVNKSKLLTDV

B1: KB_A12_ShK: ShK toxin in VL CDR2 of KB_A12, IgG1 (antibody, V domains shown)
VH: EVQLVESGGGLVRPGGSLRLSCAASGFTFSSYAMSWVRQAPGKGLEWVSAISGSGGSTYYADSVKGRFTISRDNTKNSLYLQMTSLRADDTAFYYCVKDFGPGYGTGWFDYWGPGTLVTVSS
VL: QSVLTQPPSVSEAPRQRVTITCSGSSSNIGNNAVNWYQQLPGKAPKLLIYAAGRRSCIDTIPKSRCTAFQCKHSMKYRLSFCRKTCGTCANSGVSDRFSAAKSGTSASLAINGLRSEDEADYYCAAWDDSLNGYVFGTGTKLTVLG
Q: For B1, which Fold difference (human Kv1.3 (huKv1.3); Kv1.1 IC50 over Kv1.3 IC50, Table E20) is on record?
A: 3

Q: What about the IC50 (human Kv1.3 (huKv1.3); four-point curves of FIG. 33, Table E20, read-out: Kv1.3 IC50) of the same molecule?
A: 13 nM

Q: And the IC50 (human Kv1.3 (huKv1.3); huKv1.3, four-point curves of FIG. 32, Table E19, read-out: IC50)?
A: 8.6 nM

Q: What about the IC50 (human Kv1.1 (huKv1.1)) of the same molecule?
A: 40 nM
